Assay results from patent publication US20250136677A1 (ZOETIS SERVICES, published 2025).
Positions count from the first letter of the chain named. Read-outs that look alike come from different tables or passages of the source.

What was measured:
[1] = target: T1, wildtype feline IL-31 protein (Feline_IL31_wildtype) (feline); assay: SPR (Biacore), IL-31 on chip, 1:1 fit
T1 construct: Full length feline IL-31 with C-terminal His tag, secreted from ExpiCHO cells; also called fIL-31
T1 chain: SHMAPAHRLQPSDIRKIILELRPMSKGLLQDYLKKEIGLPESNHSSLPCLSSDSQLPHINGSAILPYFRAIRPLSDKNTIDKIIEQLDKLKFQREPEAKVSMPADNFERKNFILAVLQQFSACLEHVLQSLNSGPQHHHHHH
Method in brief: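 IL-31 was amine-coupled (NHS/EDC) to the chip at 5 μg/mL and quenched with ethanolamine, and candidate mAbs were flowed over it as analytes. Binding curves were fitted to a 1:1 model.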

[2] = target: T1, wildtype feline IL-31 protein …; assay: cell-based or functional assay
[3] = target: T2, canine IL-31 protein (Canine_IL31) (canine); assay: SPR (Biacore), IL-31 on chip, 1:1 fit
T2 chain: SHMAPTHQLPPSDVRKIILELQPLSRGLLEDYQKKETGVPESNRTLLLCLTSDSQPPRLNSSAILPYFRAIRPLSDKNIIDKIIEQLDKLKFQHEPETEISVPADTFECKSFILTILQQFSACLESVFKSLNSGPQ

[4] = target: T3, mutant feline IL-31 11E12 protein (Feline_IL31_11E12_mutant) (feline); assay: indirect ELISA, feline IL-31 11E12 mutant coated
T3 construct: also called feline 11E12 mutant; 11E12 IL-31 mutant
T3 chain: T1 chain with D81A, I84A
Source text: To determine the impact of mAbs 11E12 and 15H05 ability to bind these mutant forms of feline IL-31, an indirect ELISA was run using the mutants directly coated on to an immunoassay plate. […] When mutant 11E12 is used as a capture protein, binding of mAb 11E12 is highly attenuated and binding of mAb 15H05 is partially attenuated. […] The minor attenuation of mAb 15H05s binding to the 11E12 mutant is likely due to translational effects of the mutations from movement of the two front helices effecting the 15H05 binding site. […] Unlike the 11E12 mutant, the changes in the random coil recognized by mAb 15H05 (mutant 15H05) had no impact on mAb 11E12 binding further supporting the distinction between the two epitopes (FIG. 6C).

[5] = target: T1, wildtype feline IL-31 protein …; assay: SPR (Biacore), IL-31 on chip
Description: (§1) The affinity with which candidate mAbs bind canine and feline IL-31 was determined using surface plasmon resonance (SPR) on a Biacore system (Biocore Life Sciences (GE Healthcare), Uppsala, Sweden). To avoid affinity differences associated with differential surface preparation that can occur when immobilizing antibodies to surfaces; a strategy was employed where IL-31 was directly conjugated to the surface. Immobilization was obtained by amine coupling 5 μg/mL IL-31 using N-hydroxysuccinimide (NHS)/1-Ethyl-3-(3-dimethylaminopropyl) carbodiimide (EDC) chemistry. Chips were quenched with ethanolamine and the affinity with which all candidate mAbs bound to the immobilized IL-31 was evaluated. All curves were fit to a 1:1 model. […] Results for affinity measurements are described herein.
FIG. 2 details the affinity of antibodies with CDRs derived from mouse origin using biacore. […] These observations confirm the correct sequence for both mouse antibodies and indicate conversion to the chimeric form results in antibodies with equivalent or higher affinity when compared to the mouse parent with the exception of the mouse:feline 15H05 chimera which lost some affinity to both IL-31 species as a result of its conversion to the chimeric form. […]

[6] = target: T2, canine IL-31 protein (Canine_IL31)
[7] = target: T2, canine IL-31 protein (Canine_IL31); assay: cell-based or functional assay
[8] = target: T4, mutant feline IL-31 15H05 protein (Feline_IL31_15H05_mutant) (feline); assay: Biacore, IL-31 protein as surface capture
T4 construct: also called feline 15H05 mutant; 15H05 IL-31 mutant
T4 chain: T1 chain with P103A, D105A
Description: as §1
(§2) Table 1 below describes the results for biacore analysis using multiple species of IL-31 protein as a surface capture.

[9] = target: T1, wildtype feline IL-31 protein …; assay: cell-based or functional assay
[10] = target: T2, canine IL-31 protein (Canine_IL31); assay: SPR (Biacore), IL-31 protein as surface capture
[11] = target: T5, equine IL-31 protein (Equine_IL31) (equine); assay: SPR (Biacore), IL-31 protein as surface capture
T5 construct: Recombinant equine IL-31
T5 chain: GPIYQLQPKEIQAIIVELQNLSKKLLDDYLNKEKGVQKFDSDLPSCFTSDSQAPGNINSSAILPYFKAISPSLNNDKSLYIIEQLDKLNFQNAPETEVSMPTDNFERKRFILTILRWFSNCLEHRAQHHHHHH
Description: as §1, §2

[12] = target: T3, mutant feline IL-31 11E12 protein …; assay: SPR (Biacore), IL-31 protein as surface capture
Description: as §1, §2

[13] = target: T1, wildtype feline IL-31 protein …; assay: SPR (Biacore), IL-31 protein as surface capture
Description: as §1, §2

[14] = target: T1, wildtype feline IL-31 protein …; assay: cell-based or functional assay
[15] = target: T1, wildtype feline IL-31 protein …; assay: cell-based or functional assay
[16] = target: T1, wildtype feline IL-31 protein …; assay: Biacore, feline IL-31 chip, mAb 100 nM, share of points within parent mean +/-3 SD; design: key: % of mutant data points within parent mAb mean ±3 SD
Source text: (§3) The mean response unit of four replicates of the parent mAb+/−3 standard deviations was used to generate parameters to define a threshold of response units comprising both the on- and off-rates antibody binding (FIG. 22). The percentage of data points for each mutant fell within this threshold was then used to define a “% similarity score” (FIG. 23).

[17] = target: T1, wildtype feline IL-31 protein …; assay: as above; design: key: % of mutant data points within parent mAb mean ±3 SD
Source text: The region of an antibody responsible for antigen recognition represents the paratope. A paratope is created by a combination of amino acids in the complementarity determining regions (CDRs) of both the heavy and light chain variable regions. The binding between antibody and antigen is often mediated by side chains of CDR residues with side chains or carbohydrate moieties of the antigen. To help define critical side chains involved in antibody recognition alanine scanning mutagenesis was performed on each CDR residue in both the heavy and light chain. These mutants were then individually tested for the ability to bind feline IL-31 using the biacore and evaluated for inhibition of IL-31-mediated signaling in the FCWF-4 cell based assay.
as §3

B1: mouse:feline 11E12 chimera (antibody)
heavy: QVQLQQSGAELVKPGASVKLSCKASGYTFKYYDINWVRQRPEQGLEWIGWIFPGDGGTKYNETFKGKATLTTDKSSSTAYMQLSRLTSEDSAVYFCARGGTSVIRDAMDYWGQGTSVTVSSASTTAPSVFPLAPSCGTTSGATVALACLVLGYFPEPVTVSWNSGALTSGVHTFPAVLQASGLYSLSSMVTVPSSRWLSDTFTCNVAHPPSNTKVDKTVRKTDHPPGPKPCDCPKCPPPEAAGAPSIFIFPPKPKDTLSISRTPEVTCLVVDLGPDDSDVQITWFVDNTQVYTAKTSPREEQFNSTYRVVSVLPILHQDWLKGKEFKCKVNSKSLPSPIERTISKAKGQPHEPQVYVLPPAQEELSRNKVSVTCLIKSFHPPDIAVEWEITGQPEPENNYRTTPPQLDSDGTYFVYSKLSVDRSHWQRGNTYTCSVSHEALHSHHTQKSLTQSPGK
light: DIVLTQSPASLAVSLGQRATISCRASESVDNYGISFMHWYQQKPGQPPKLLIYRASNLESGIPARFSGSGSRTDFTLTINPVETDDVATYYCQQSNKDPLTFGAGTKLELKRSDAQPSVFLFQPSLDELHTGSASIVCILNDFYPKEVNVKWKVDGVVQNKGIQESTTEQNSKDSTYSLSSTLTMSSTEYQSHEKFSCEVTHKSLASTLVKSFQRSECQRE
notes: Mouse variable regions on feline IgG constant regions; made in HEK 293 cells
Kd [1]: 130 pM | koff [1]: 5.06e-05 s⁻¹ | kon [1]: 388000 M⁻¹ s⁻¹ | IC50, inhibition of feline IL-31-induced STAT3 phosphorylation, canine DH82 cells [2]: 4.4 µg/mL | IC50, inhibition of feline IL-31-induced STAT3 phosphorylation, feline FCWF4 cells [2]: 3.45 µg/mL | Kd [3]: 0.127 pM | koff [3]: 8.7e-08 s⁻¹ | kon [3]: 684000 M⁻¹ s⁻¹ | binding result [4]: binds

B2: Feline 11E12 1.2 (antibody, V domains shown)
VH: QVLLVQSGAEVKKPGASVKIFCKASGYSFTYYDINWLRQAPEQGLEWMGWIFPGDGGTKYNETFKGRLTLTADTSTNTVYMELSSLRSADTAMYYCARGGTSVIRDAMDYWGQGALVTVSS
VL: EVVLTQSSAFLSRTLKEKATITCRASESVDNYGISFMHWYQQKPNQAPKLLVKRASNLESGAPSRFSGSGSGTDFTLTISSPEPEDAATYYCQQSNKDPLTFGQGT
notes: Feline heavy and kappa constant regions; also called felinized 11E12 1.2
IC50, inhibition of feline IL-31-induced STAT3 phosphorylation, canine DH82 cells [2]: > 100 µg/mL | IC50, inhibition of feline IL-31-induced STAT3 phosphorylation, feline FCWF4 cells [2]: > 100 µg/mL | binding result [5]: no binding

B3: ZTS-361 (antibody)
heavy: QVLLVQSGAEVRTPGASVKIFCKASGYSFTSYTIHWLRQAPAQGLEWMGNINPTSGYTENNQRFKDRLTLTADTSTNTAYMELSSLRSADTAMYYCARWGFKYDGEWSFDVWGAGTTVTVSSASTTAPSVFPLAPSCGTTSGATVALACLVLGYFPEPVTVSWNSGALTSGVHTFPAVLQASGLYSLSSMVTVPSSRWLSDTFTCNVAHPPSNTKVDKTVRKTDHPPGPKPCDCPKCPPPEAAGAPSIFIFPPKPKDTLSISRTPEVTCLVVDLGPDDSDVQITWFVDNTQVYTAKTSPREEQFNSTYRVVSVLPILHQDWLKGKEFKCKVNSKSLPSPIERTISKAKGQPHEPQVYVLPPAQEELSRNKVSVTCLIKSFHPPDIAVEWEITGQPEPENNYRTTPPQLDSDGTYFVYSKLSVDRSHWQRGNTYTCSVSHEALHSHHTQKSLTQSPGK
light: EIQMTQSPSSLSASPGDRVTITCRASQGISIWLSWYQQKPGNIPKVLINKASNLHIGVPSRFSGSGSGTDFTLTISSLEPEDAATYYCLQSQTYPLTFGGGTKLEIKRSDAQPSVFLFQPSLDELHTGSASIVCILNDFYPKEVNVKWKVDGVVQNKGIQESTTEQNSKDSTYSLSSTLTMSSTEYQSHEKFSCEVTHKSLASTLVKSFQRSECQRE
IC50, inhibition of canine IL-31-induced STAT3 phosphorylation, feline FCWF4 cells [6]: 38.8 µg/mL | Kd [1]: 474 pM | koff [1]: 2.18e-05 s⁻¹ | kon [1]: 46000 M⁻¹ s⁻¹ | Inhibition of IL-31 induced pSTAT3 IC50 (µg/ml), Canine IL-31 on Canine DH82 cells [7]: 23 µg/ml | binding result [8]: no binding | Inhibition of IL-31 induced pSTAT3 IC50 (µg/ml), Feline IL-31 on Feline FCWF-4 cells [9]: 8.85 µg/ml | Kd [10]: 2.41 pM | Kd [11]: 625 pM | Kd [12]: 17200 pM | Kd [13]: 625 pM

B4: ZTS-1505 (antibody)
heavy: B3 heavy
light: EIQMTQSPSSLSASPGDRVTITCRASQGISIWLSWYQQKPGNIPKVLINKASNLHIGVPSRFSGSGSGTDFTLTISSLEPEDAATYYCLQSQTYPLTFGGGTKLEIKRSDAQPSVFLFQPSLDELHTGSASIVCILNDFYPKEVNVKWKVDGVVQNKGIQESTTEQNSKDSTYSLSSTLTMSSTEYQSHEKFSCEVTHKSLASTLVKSFQRSEC
% Inhibition Relative to Parent (pSTAT, FCWF-4 cells) [14]: 100% | % Inhibition Relative to Parent (pSTAT, FCWF-4 cells) [15]: 100% | Inhibition of IL-31 induced pSTAT3 IC50 (µg/ml), Canine IL-31 on Canine DH82 cells [7]: 21.8 µg/ml | binding result [8]: no binding | Inhibition of IL-31 induced pSTAT3 IC50 (µg/ml), Feline IL-31 on Feline FCWF-4 cells [9]: 4.53 µg/ml | Binding Similarity score [16]: 97 | Kd [10]: 1.83 pM | Binding Similarity score [17]: 97 | Kd [11]: 575 pM | Kd [12]: 19500 pM | Kd [13]: 575 pM
